Laboratory results taken from the supplement of paper PMC12042874.
± gives the uncertainty stated by the source.

Assay: amyloid nucleation score (Sup35N fusion, yeast selection) (log enrichment); library NNK3; higher = more nucleation; inactive = no reads after selection
Method in brief: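 Nucleation score is defined as the DiMSum log enrichment of output over input reads, with centring on the mode score of non-aggregating sequences. A minimum of 100 input reads was required for each sequence. Reads came from Illumina sequencing of plasmid inserts from psi-negative yeast expressing Sup35N fused to peptides of 20 random codons, induced with 100 μM copper sulfate for 24 hours and grown 7 days at 30°C on medium lacking adenine and uracil.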

| Substance | amyloid nucleation score |
| --- | --- |
| VPLMQGD | 3.16 ± 0.056 |
| VTILMLNHYSYTSLLMRKFN | 0.704 ± 0.12 |
| TGSMFRSRPRSEG | inactive |
| MQPGYQCDNVVRSCHDAHGY | inactive |
| EGHLIHEYTQTRFVLEVSVK | inactive |
| RHNARRWCTVSC | inactive |
| VRMVKYCLTLSSRTYCLIIM | inactive |
| IGMKFCAYVLLSYKAITMFG | inactive |
| TENQS | inactive |
| ILYFDVTISV | inactive |
| TFVVGRVITWKNQVCL | inactive |
| SLFMMWLYVCQLYCLFDGIE | inactive |
| TYLCFYTKRPDAVYWSTLDH | inactive |
| LSSGNGSFVRYI | inactive |
| SNVEYCLYARLYLGCGVCHP | 0.176 ± 0.42 |
| NLRSS | inactive |
| CPCRHVFSRLSPF | inactive |
| HFSLGLVMYLCSLGNVRP | 1.47 ± 0.11 |
| TLDPNIHESFFSAACWYSKA | inactive |
| FLILSNEIMPLFTWANKRLE | inactive |
| IDYRMYYY | inactive |
| DRVPSDTRCYKYGLLLLWYQ | inactive |
| MKLEEELSYRFRRSWFYALW | inactive |

| Substance | amyloid nucleation score |
| --- | --- |
| CLNGPFVCLKYYVCFIAMMF | inactive |
| LMFRTLFK | 0.062 ± 0.62 |
| CNLDLVANT | inactive |
| FMTWHFENCCWCRHSRFGLL | inactive |
| IFIQLSDLMQSKVAHECGWC | inactive |
| KLRTSGAILVF | inactive |
| RLQMRSATLYCEGGSGAILY | inactive |
| ESDITICS | inactive |
| GRPTSRLMSNWTFPSATVSW | inactive |
| DNVNYPPVSYQTAG | inactive |
| HGMPMVAFITFVVNIRGLCD | 0.079 ± 0.81 |
| RQHLFRSWEVQMSLSLDF | -0.379 ± 0.63 |
| INNLYDVQRGIADFWKSWLV | inactive |
| IYDCNRDIGDVLTSSDPPHA | inactive |
| RDYQCLQLYCRSASPIT | inactive |
| FGVTTEF | 1.23 ± 0.14 |
| CVPCRQHTYSWDFVRVHLTV | inactive |
| YSIVRGWMDARDLHMLHLEI | inactive |
| FPLDRGYSVTGDMRMPPAVR | inactive |
| LNLWPNSD | inactive |
| FYWSFIRLFRS | inactive |
| PCECTNHLACDNIPMRYTE | inactive |
| GVPMCSWGMIILL | inactive |

| Substance | amyloid nucleation score |
| --- | --- |
| SGKDIALMVHCVTVMWDQAY | inactive |
| ADVGGD | inactive |
| PAVQGSKDAASSAERCACQR | inactive |
| VGWTVGYKW | inactive |
| VGTLRSAGIIMVSRELVMRV | inactive |
| NRYLFLIGSA | inactive |
| NTPNCYFVLRRVILMRLKLS | inactive |
| PNCGFVCMKMCATTDLFVCV | inactive |
| SARIPSLWNHWRIW | inactive |
| ARICIAACIRAICDGFSGRR | inactive |
| FTLDYLNSGSI | inactive |
| LENGVHVRRSIEF | inactive |
| YRAIVSHNAMTPV | inactive |
| TYVRIGVCGVLWFCTFFTQC | inactive |
| VNSRCI | inactive |
| VNIIF | inactive |
| KALTRRIILHWK | 0.711 ± 0.28 |
| AYAQSYND | inactive |
| HNVFVFCNMAVIELQVNDWL | 3.26 ± 0.063 |
| PYRFLESTSRALYFTFSYTF | inactive |
| FCCINKLDGLGVWETYCSYS | inactive |
| FTCEPARFKDYQWNNEGYCL | inactive |
| RESNNLLFQQVGYLYYSWFY | 1.86 ± 0.078 |

| Substance | amyloid nucleation score |
| --- | --- |
| RSSSCLKTYLYLCGGWTSTF | 0.003 ± 0.26 |
| FALSWSSNGAALLRLELTTL | 0.224 ± 0.44 |
| FLALDQISFVIRCLNI | inactive |
| QKRIQFTSECTRKRNFWLFS | inactive |
| SVYLT | inactive |
| PLRRSMMRIPHATF | inactive |
| EGETTEVLTLVVWRKVINNS | inactive |
| SCGSSH | inactive |
| WLIFYVYIVGDPAWLLVFMS | inactive |
| YYYSMVTTLRGAISILRNPA | inactive |
| QLCVISWLGR | 1.14 ± 0.15 |
| TCLWGYALFICMNSRWGMRW | inactive |
| SRLDALLMKLCFVICLRILK | inactive |
| PNRQTLFSSIRF | 0.092 ± 0.56 |
| FSNGPSAVYYFIYLGLFNKN | 1.48 ± 0.072 |
| SGPGRSACSFYNAIFMRRFQ | inactive |
| TFWKKGMPGIIYRYFYLF | inactive |
| NCFEYLYPRVTDTELNRFFL | inactive |
| GVFDYTYGRLVAVFKGFGNY | inactive |
| LLIDCYVDYSC | 0.105 ± 0.24 |
| FNFLVMILGITLPNNITFEH | 0.279 ± 0.17 |
| CDSRSCFKVYASLAARSDQR | 2.12 ± 0.074 |
| WNVPGVHCCIWVTRWEMGPT | 2.72 ± 0.078 |

| Substance | amyloid nucleation score |
| --- | --- |
| VTRMDGYVAFISNHSFKSVY | 1.36 ± 0.14 |
| RTKFWMRRKRLLPSILYNEL | inactive |
| LLIKDYMHDHLGIILYTEEC | inactive |
| FDNFFYWSRKRD | inactive |
| YPMLLALYTGSVFNFNRCRL | 2.07 ± 0.089 |
| TYFYSIIYYIYGYVFLRRAY | -0.346 ± 0.8 |
| YCPRLRVRVCWFGTSSLDFQ | 0.862 ± 0.16 |
| MCMLIYCYAQSLVMKMDSHY | inactive |
| FKDVSVPIR | inactive |
| LRGCVNAYLRYHTRGLVVLR | inactive |
| KSWYEFPKMLRNHRTYNQRL | inactive |
| LSDYIGAPFSSKSRDW | inactive |
| SFVQLMFLFGT | 1.83 ± 0.076 |
| HRVYLPGRWRLMISLSC | -0.201 ± 1.3 |
| WHSMSCFSPKLGWDQFPVLR | inactive |
| MHHVLYERERSY | inactive |
| CWNLISWSKEYA | inactive |
| LYVFCTSY | inactive |
| QNTGLYVN | inactive |
| ADVLFKFNSDMRRS | inactive |
| RFKKVVHSFRFCAIENVLDY | inactive |
| RDGHIQMCFIWVKRDNCQVF | inactive |
| HFSKHTVTNRPYDVHNLGKC | inactive |

| Substance | amyloid nucleation score |
| --- | --- |
| KGMFLVMSRLCPFISWSRSQ | inactive |
| TNYRYSFGISYS | inactive |
| AKFSQVLLLQWGSSPDIDRE | 1.11 ± 0.18 |
| LREYFMFPRVHNLFNLV | inactive |
| TKECGKKFNYWVRIDLSRLW | inactive |
| NMETYLFANVMLFGKPGLLS | 1.01 ± 0.12 |
| VIVRDSLISVSSTIRDFVCG | inactive |
| CGSVNVSTRYKD | inactive |
| NFWEYQSECWRVTQW | inactive |
| HLTHVYVADSVGLKLFVYHP | 1.9 ± 0.072 |
| GSVQTHFLDYGCSPNMDMLV | inactive |
| CRTQL | inactive |
| TLVRTDPRGTVSPPTFPCEW | inactive |
| FADYFASSIFWYRCASHLGW | inactive |
| ATTGR | inactive |
| LMASWTVRTYHGFSISENRN | 0.312 ± 0.26 |
| LTYGFFESNFGGCNRFCF | inactive |
| LQSRF | inactive |
| GVFVEIRILYKGKWYTCMSK | inactive |
| DKVTHQCSISMSWAWRVHVV | inactive |
| DRHCLSL | 0.582 ± 0.17 |
| CIGIYFLIRGTYILIVFSL | -0.607 ± 1 |
| MGVSADTYYNIRM | 0.161 ± 0.43 |

| Substance | amyloid nucleation score |
| --- | --- |
| GTDVRS | -0.272 ± 0.43 |
| ICFGDKVRIKFFVPSIFSWY | inactive |
| DWNYNTLQLSSPVGAGLTKN | inactive |
| MGLLLFLSANDV | inactive |
| CNILIISTTLTPKITLTFYC | 1.64 ± 0.13 |
| RHVLQILLSKKRDATMLPNY | inactive |
| RRTVYRHF | inactive |
| ILFIDSSFLIVR | inactive |
| STIVL | inactive |
| KRGLTGVSLVLDETVAVPSD | inactive |
| KGSVRYIDCIVIL | 1.77 ± 0.063 |
| SDYYMENISFCENMRDILFS | inactive |
| NLEEHIRCFKGDRDPYLFF | inactive |
| LTTESNLHVCVRRVGQLHLA | inactive |
| ANMCNCKAIHRFNKFNICSR | inactive |
| MSLRLVMWFSNLVSYTV | inactive |
| FMLGDAVFRFFVRNGGRIDN | inactive |
| LTYAALYLNGKMNVENARVV | inactive |
| FISSSSTRILQYGRYTVEIN | inactive |
| FLPPTVINVVHAYRRFSSDR | 1.71 ± 0.098 |
| PTGLGTAYQLNAWTASFG | inactive |
| LSASGYQSCSNVMMSTHVSN | inactive |
| RSRNAIVLGACYC | inactive |
